Assay results as given in publication PMC7824956, “Structural and Biochemical Characterization of a Cold-Active PMGL3 Esterase with Unusual Oligomeric Structure” (Biomolecules, 2021).
Several values for one entry are separate records, joined by “and”; a condition that tells them apart may be missing. Equal values may be shown once. Each block holds one compound with its values, some of them ahead of it.

Key:
[1] = test system: T1, CCCC(=O)Oc1ccc([N+](=O)[O-])cc1; test: esterase activity, Michaelis-Menten nonlinear regression; type: biochemical, permafrost metagenome; conditions: 50 mM Tris-HCl pH 8.0, 100 mM NaCl, 30 °C, 0.2-2 mM substrate
T1 construct: recombinant in E. coli, pET32a (stated for mutants), C-terminal hexahistidine tag; 302 residues modelled plus last 10 C-terminal residues invisible; mainly dimer in solution, tetramer in crystal; catalytic motif 147GESAG151, E243, H273
From the text: (§1) esterase activity, Michaelis-Menten nonlinear regression on PMGL3

[2] = target: PMGL3 E47Q mutant (not stated (Siberian permafrost metagenomic DNA library)); test: SEC; freshly isolated samples; Superdex 200 10/300 GL, 0.4 mL/min, 100 mM Tris-HCl pH 8.0, 150 mM NaCl; column calibrated with protein standards
[3] = target: PMGL3 E47Q mutant (not stated (Siberian permafrost metagenomic DNA library)); test: SEC; samples after incubation for 30 min and/or 1 h at 40 °C; Superdex 200 10/300 GL, 0.4 mL/min, 100 mM Tris-HCl pH 8.0, 150 mM NaCl
[4] = target: PMGL3 K67A mutant (not stated (Siberian permafrost metagenomic DNA library)); test: SEC; freshly isolated samples; Superdex 200 10/300 GL, 0.4 mL/min, 100 mM Tris-HCl pH 8.0, 150 mM NaCl; column calibrated with protein standards
[5] = target: PMGL3 K67A mutant (not stated (Siberian permafrost metagenomic DNA library)); test: SEC; samples after incubation for 30 min and/or 1 h at 40 °C; Superdex 200 10/300 GL, 0.4 mL/min, 100 mM Tris-HCl pH 8.0, 150 mM NaCl
[6] = target: cold-active esterase PMGL3, wild type (not stated (Siberian permafrost metagenomic DNA library)); test: SEC; freshly isolated samples; Superdex 200 10/300 GL, 0.4 mL/min, 100 mM Tris-HCl pH 8.0, 150 mM NaCl; column calibrated with protein standards
[7] = target: cold-active esterase PMGL3, wild type (not stated (Siberian permafrost metagenomic DNA library)); test: crystal structure; X-ray, space group C2, two subunits in the asymmetric unit; crystals from 0.1 M sodium citrate pH 5.6, 20% isopropanol, 20% PEG 4000; oligomers from crystal contact analysis (PDBePISA)
[8] = target: cold-active esterase PMGL3, wild type (not stated (Siberian permafrost metagenomic DNA library)); test: SEC; sample after storage for 3 months at 4 °C; Superdex 200 10/300 GL, 0.4 mL/min, 100 mM Tris-HCl pH 8.0, 150 mM NaCl
[9] = target: cold-active esterase PMGL3, wild type (not stated (Siberian permafrost metagenomic DNA library)); test: SEC; freshly isolated samples; Superdex 200 10/300 GL, 0.4 mL/min, 100 mM Tris-HCl pH 8.0, 150 mM NaCl; column calibrated with protein standards; remark: listed apart in the source
[10] = target: cold-active esterase PMGL3, wild type (not stated (Siberian permafrost metagenomic DNA library)); test: SEC; samples after incubation for 30 min and/or 1 h at 40 °C; Superdex 200 10/300 GL, 0.4 mL/min, 100 mM Tris-HCl pH 8.0, 150 mM NaCl
[11] = target: cold-active esterase PMGL3, wild type (not stated (Siberian permafrost metagenomic DNA library)); test: crystal structure; X-ray, space group C2, two subunits in the asymmetric unit; crystals from 0.1 M sodium citrate pH 5.6, 20% isopropanol, 20% PEG 4000; oligomers from crystal contact analysis (PDBePISA); remark: listed apart in the source
PMGL3 = target: T2, PMGL3 (unidentified, UniProt Z9N994FV33); test: esterase activity, Michaelis-Menten nonlinear regression; type: biochemical, permafrost metagenome; conditions: 50 mM Tris-HCl pH 8.0, 100 mM NaCl, 30 °C; 0.2-2 mM substrate
T2 construct: recombinant in E. coli, pET32a (stated for mutants), C-terminal hexahistidine tag; 302 residues modelled plus last 10 C-terminal residues invisible; mainly dimer in solution, tetramer in crystal; catalytic motif 147GESAG151, E243, H273
T2 sequence (Z9N994FV33 1-304): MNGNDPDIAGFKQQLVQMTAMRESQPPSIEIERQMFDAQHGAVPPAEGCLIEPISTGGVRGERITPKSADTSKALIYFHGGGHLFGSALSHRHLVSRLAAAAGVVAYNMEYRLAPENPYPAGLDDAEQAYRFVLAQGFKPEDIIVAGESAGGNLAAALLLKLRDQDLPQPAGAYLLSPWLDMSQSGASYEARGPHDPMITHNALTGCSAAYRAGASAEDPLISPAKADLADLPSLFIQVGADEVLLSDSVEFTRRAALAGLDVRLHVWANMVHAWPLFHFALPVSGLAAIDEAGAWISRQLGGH
From the text: as §1

[12] = target: PMGL3 D7N mutant (not stated (Siberian permafrost metagenomic DNA library)); test: SEC; freshly isolated samples; Superdex 200 10/300 GL, 0.4 mL/min, 100 mM Tris-HCl pH 8.0, 150 mM NaCl; column calibrated with protein standards
[13] = target: PMGL3 D7N mutant (not stated (Siberian permafrost metagenomic DNA library)); test: SEC; samples after incubation for 30 min and/or 1 h at 40 °C; Superdex 200 10/300 GL, 0.4 mL/min, 100 mM Tris-HCl pH 8.0, 150 mM NaCl

Compound: PMGL3 (unidentified; K67A)
Km [1]: 940 ± 60 µM
Vmax [1]: 102 µmol/min/mg
kcat [1]: 55.5 ± 1.4 s⁻¹

Compound: PMGL3 (unidentified; D7N)
Km [1]: 840 ± 70 µM
Vmax [1]: 157 µmol/min/mg
kcat [1]: 85 ± 3.15 s⁻¹

Compound: CCCC(=O)Oc1ccc([N+](=O)[O-])cc1 [p-nitrophenyl butyrate]
Km (PMGL3): 980 ± 90 µM

Compound: PMGL3 (unidentified; E47Q)
Km [1]: 1070 ± 90 µM
Vmax [1]: 117 µmol/min/mg
kcat [1]: 63.7 ± 2.07 s⁻¹

Now from value to compound:

stoichiometry N [2]: 4 and 2
stoichiometry N [3]: 4
Compound: PMGL3 E47Q mutant (enzyme)

stoichiometry N [4]: 2
stoichiometry N [5]: 4
Compound: PMGL3 K67A mutant (enzyme)

stoichiometry N [6]: 4
stoichiometry N [7]: 2
stoichiometry N [8]: 4
stoichiometry N [9]: 2
stoichiometry N [10]: 4
stoichiometry N [11]: 4
Compound: cold-active esterase PMGL3, wild type (enzyme)

stoichiometry N [12]: 2 and 4
stoichiometry N [13]: 4
Compound: PMGL3 D7N mutant (enzyme)
